± gives the standard deviation of the averaged measurements.
Test system: ATP
Assay: switch fluorescence ratio, 500 uM ATP over buffer (Cy3 cluster intensity, sum of 5 cycles each) (fold (ratio)); higher = stronger signal-on switching upon ATP binding; sequences stand for … in TCGTCGGCAGCGTCAGATGTGTATAAGAGACAGTTTTTTTTTTTTTTTTTTTTTTTTT…TC
Conditions: aptamer strand: ATP DNA aptamer (quencher-CACCTGGGGGAGTATTGCGGAGGAAGG + anchor), 100 nM annealed; ATP concentration: 500 uM
In short: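 Per cluster, summed Cy3 intensity from the target cycles was divided by that from the buffer cycles to give the fluorescence ratio, then averaged per switch-domain sequence. Clusters outside 100-1000 RFU were excluded. The Cy3-labelled switching-strand clusters, on a modified Illumina MiSeq flow-cell, were annealed to 100 nM quencher-labelled ATP aptamer and imaged in selection buffer, then after 15 min with 500 uM ATP at 22 °C, for five cycles with NaOH stripping and re-annealing between them.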
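Further: ATP exposure 15 min at 22 °C before imaging.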

Row | Sequence | switch fluorescence ratio
1 | GGCGTGGCGG | 0.994 ± 0.019
2 | GTTTTACACG | 0.954 ± 0.031
3 | TATTCACAAG | 1.024 ± 0.0027
4 | TTTCATCCCC | 1.07 ± 0.034
5 | ACATGGGGAA | 0.994 ± 0.012
6 | CGTGGGGAGC | 1.06 ± 0.11
7 | GATTCTGGTT | 0.94 ± 0.029
8 | GAAATATGGC | 1.15 ± 0.062
9 | ATTTGTTTTA | 1.08 ± 0.17
10 | CGGGGTTAGC | 1.01 ± 0.014
11 | AATATTGAAG | 1 ± 0.018
12 | AGATTGGGTT | 0.967 ± 0.024
13 | AGCGACGTTT | 0.9647 ± 0.0064
14 | ACAGTATGGA | 1 ± 0.011
15 | TCCAGACAGT | 0.984 ± 0.026
16 | AAACCGGGAC | 1.55 ± 0.15
17 | ATATGGGTTT | 1.01 ± 0.033
18 | GATGGGGCTG | 1.02 ± 0.062
19 | TTTGATGTGC | 1.07 ± 0.064
20 | TTTACAGGTA | 0.981 ± 0.021
21 | TTTTTGGGGG | 0.997 ± 0.035
22 | TAATTTTTG | 0.9976 ± 0.0011
23 | CAGGAACTTT | 0.995 ± 0.0012
24 | CTTGTCGTGC | 0.995 ± 0.033
25 | AGGTAGCGGC | 0.9911 ± 0.0095

Row | Sequence | switch fluorescence ratio
26 | GTATCCCGTG | 0.977 ± 0.018
27 | GGGTTTTCGG | 0.987 ± 0.026
28 | CTTTTTGTTT | 1.01 ± 0.041
29 | GTGGCATACT | 1.12 ± 0.016
30 | TTTAGGTTTT | 1.01 ± 0.021
31 | CGGAGACGTG | 1 ± 0.025
32 | ACCTTATCCT | 1.16 ± 0.012
33 | TAGAAGGCTT | 0.9989 ± 0.0076
34 | TGCGAATTAG | 0.998 ± 0.019
35 | AGGTGTTATG | 1.03 ± 0.051
36 | TACCAATGGA | 1.02 ± 0.04
37 | GCCTCTGGTG | 1.33 ± 0.035
38 | CGTGTGGGTT | 0.993 ± 0.011
39 | TTCTATACAT | 1.04 ± 0.054
40 | TGTGGTATAT | 0.993 ± 0.024
41 | GGTTGGCTTT | 1.01 ± 0.069
42 | GATTTGACG | 1.04 ± 0.056
43 | ATACTCGCGT | 1.014 ± 0.01
44 | AGGCATTATA | 1.01 ± 0.013
45 | TATTTGGGTT | 1.07 ± 0.082
46 | AGAATCGTTG | 1.005 ± 0.0072
47 | TATTTCTTGG | 0.968 ± 0.014
48 | TCAAGGGGTT | 1.1 ± 0.15
49 | TTCGGGGGTA | 0.97 ± 0.023
50 | GTGTAAGGTT | 0.9935 ± 0.0066

Row | Sequence | switch fluorescence ratio
51 | TTTATGTCGT | 0.986 ± 0.038
52 | CCTACCGTGG | 1.31 ± 0.11
53 | GGACGGGGGT | 1.01 ± 0.038
54 | TAAGAGTACA | 1.07 ± 0.011
55 | TAGAGCAGGT | 1.03 ± 0.011
56 | CGGCAGGGGG | 1.06 ± 0.1
57 | AGATTGATCG | 1.02 ± 0.015
58 | TTTTATCCGT | 1.06 ± 0.066
59 | ATGTAAAGTC | 1.018 ± 0.0031
60 | GGATGAGCTG | 0.978 ± 0.052
61 | TACGTAGGTG | 1.04 ± 0.031
62 | GTTTCCGATT | 0.991 ± 0.019
63 | TGAAGCAAAT | 1.77 ± 0.075
64 | ACAGAGGGTG | 1.08 ± 0.095
65 | AGAGGGCAGG | 0.995 ± 0.018
66 | ATAGCGGTCG | 1.01 ± 0.07
67 | GTTAGATGGT | 0.9851 ± 0.0037
68 | GGGGTGTGGT | 0.998 ± 0.038
69 | TTTGTAGCAG | 1.09 ± 0.028
70 | TAAACGGGAC | 1.11 ± 0.019
71 | AGAAGGGGGA | 1.01 ± 0.039
72 | GTGGCTGGGA | 0.974 ± 0.026
73 | GATGTCATTT | 0.987 ± 0.024
74 | TCCTTTAAAT | 1.13 ± 0.0032
75 | CTATCCGTGC | 1.287 ± 0.0028

Row | Sequence | switch fluorescence ratio
76 | AGTAGGCGCT | 1.01 ± 0.048
77 | AGGAGAGGAT | 1.14 ± 0.28
78 | GCAGTCGCAA | 1.1 ± 0.043
79 | CGAAGCTTTT | 1.089 ± 0.003
80 | CATTTCGGCG | 0.999 ± 0.044
81 | CGGGACATAG | 0.964 ± 0.026
82 | GTGGTCGGCA | 0.996 ± 0.011
83 | TCGGGTGAAC | 0.983 ± 0.041
84 | CTCTTTCGAT | 1.03 ± 0.03
85 | CCCCTGGAAT | 1.08 ± 0.03
86 | AAATGGTACT | 1.01 ± 0.035
87 | AACAGTTTGT | 1 ± 0.017
88 | GTTATTACGT | 1.03 ± 0.021
89 | TGATCACTAT | 1.007 ± 0.0076
90 | TCGATTTTGG | 1 ± 0.029
91 | GTTTGCCTGT | 0.9845 ± 0.0094
92 | ATCAGTGGTT | 0.974 ± 0.013
93 | GTTTGAGGGT | 0.9939 ± 0.0087
94 | TTTTGGAAGA | 0.983 ± 0.039
95 | GCGTTAATAA | 1.06 ± 0.038
96 | GTCACGTATT | 1.16 ± 0.0099
97 | AATTATCCTT | 1.07 ± 0.037
98 | ATCGGGTTTG | 0.977 ± 0.03
99 | CTGAGAAGAG | 0.993 ± 0.041
100 | CCGGGGCACT | 1.34 ± 0.26

Reference: the supplement of paper PMC10126150
